B1: 4N10 (antibody, V domains shown)
VH: QVQLVQSGAEVKKPGSSVRVSCKASGGTFSSYVIIWVRQAPGQGLEWMGGVIPIFDTVNYAQKFQGRVTITADESTSTAYMELSSLKSEDTAVYYCARGILAYCGGDCYNTPYGMDVWGQGTTVTVSS
VL: DIQMTQSPSILSASVGDRVTITCRASQSISSWLAWYQQKPGKAPKLLIYKASSLEIGVPSRISGSGSGTEFTLTISSLQPDDFATYYCQQYNSSWTFGQGTKVEIK
notes: human IgG mAb; also called 4N10-biotin
B2: 8L13 (antibody, V domains shown)
VH: QVQLLESGGGVVQPGRSLRLSCAASGFTFSNYGMHWVRQAPGKGLEWVAVIWNDGSKKYYAESVKGRFTISRDNSKNTVYLQMNSLRAEDTAVYYCARDEGVQMVFAMPDYGMDVWGQGTTVTVSS
VL: SYELTQPPSVSVSPGQTASITCSGDKLGDKFACWYQQRPGQSPILVIYQDSKRPSGIPERFSGSNSGNTATLTIRGTQAMDEADYYCQAWDSSTAHYVFGTGTKVTVL
notes: human IgG mAb
B3: 10P3 (antibody, V domains shown)
VH: EVQLVESGGGLVRPGGSLRLSCAASGFTFHNYRMNWVRQAPGKGLEWVANIKQDGSEKSYVDSVRGRFTTSRDNSKNSLYLQINSLRAEDTAVYYCARGEGYTYGVVYSYSAMDVWGQGTTVIVSS
VL: SYELTQPPSVSVSPGQTARITCSGNVLPNQYASWYQQKPGQAPVLVIYKDTERPSGIPGRFSGSSSGTTVTLTISGVQAEDEADYYCQSADSSGADYVFGTGTKVTVL
notes: human IgG mAb
B4: 4I22 (antibody, V domains shown)
VH: QVQLVESGGGVVQPGRSLRLSCVASGFTFSSYAMHWVRQAPGKGLEWVAVISYDGDNKFYADSVKGRFRISRDTSKNTLYLEMNSLRAADTAIYYCAREELVGLMPPYYNYGLDVWGQGTTVTVSS
VL: QSVLTQPPSVSAAPGQKVTISCSGSNSNIGNNYVSWYQQLPGRAPKLLIYDNDHRPSGIPDRFSGSKSGTSATLVITGLQTGDEADYYCETWDTSLSAAVVFGGGTKLTVL
notes: human IgG mAb; also called 4I22-biotin
B5: 8I21 (antibody, V domains shown)
VH: LVELVESGGGVVQPGRSLRLSCAASGFTFSSDGMHWVRQSPGRGLEWVAFISSDGSTPYYADSVKGRFTISRDNSKNTLYLQMNSLRAEDTAMYFCAKDWALFRWLRTFDHWGQGTLVTVSS
VL: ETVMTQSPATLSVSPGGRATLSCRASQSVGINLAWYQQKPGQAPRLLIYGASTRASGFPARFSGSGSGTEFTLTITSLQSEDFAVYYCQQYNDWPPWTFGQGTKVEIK
notes: human IgG mAb; also called 8I21-biotin
B6: 10F7 (antibody, V domains shown)
VH: EVQLVESGGGLVQPGRSLRLSCTASGFTFGDYAMSWFRQAPGKGLEWVGFIRSKAYGGTTEYAASVKGRFTISRDDSKSIAYLQMNSLKTEDTAVYYCTRASSLLWLLNPQPNFDYWGQGTLVTVSS
VL: SYVLTQPPSVSVAPGQTARITCGGNNIGSNNVHWYQQKPGQAPVLVVYDDSDRPSGIPERFSGSNSGNTATLTISRVEAGDEADYYCQVWDSSSDHPVFGGGTKLTVL
notes: human IgG mAb; also called 10F7-biotin
B7: 15D8 (antibody, V domains shown)
VH: EVQLVQSGAEVKKPGESLKISCQASGYSFTNYWIAWVRQMPGKGLEWMGIIYPGDSDIKYSPSFRGQVTISADKSISNAFLQWRSLRASDTAMYYCARHAIRGDGFDYWGQGTLVTVSS
VL: SYELTQPPSVSVSPGQTATITCSGDKLGEKYACWYQQKPGQSPVLVMYQDTKRPSGIPERFSGSNSGNTATLTISGTRAMDEADYYCQAWDTNTVIFGGGTKLTVL
notes: human IgG mAb; also called 15D8-biotin
B8: 3G16 (antibody, V domains shown)
VH: QSALTQPASVSGSPGESITISCTGTISDVGAYNSVSWYQQHSGTAPELIIYDVTNRPAGVSSRFSGSKSGNTASLTISWLQSEDEAEYYCSSYTTSDTYVFGSGTQVTVL
V domain: RAQLVQSAAEMKNPGASVKVSCEASGYTFTGYYVHWMRQAPGQGLEWMGWINPMTGATKSPQKFQGRVTMTRDTSTTATHIELTRLRSDDSAVFFCARGGPTSTRITGKRHFDLWGRGTLITVAS
notes: human IgG mAb; also called 3G16-biotin

Key:
[1] = molecular target: T1, hCMV UL130 and UL131A co-expressed in HEK293T cells (human cytomegalovirus, UniProt P16772 1-214); assay: cell-based or functional assay
[2] = molecular target: T1, hCMV UL130 and UL131A co-expressed in …; assay: cell-based or functional assay; remark: listed apart in the source
[3] = molecular target: T2, hCMV gH, gL, UL128, UL130 and UL131A co-expressed in HEK293T cells (human cytomegalovirus, UniProt P12824 24-743; P16832 31-278; P16837 1-171; P16772 1-214); assay: cell cross-competition, 20x excess; competitor 2F4-biotin
T2 construct: whole, on cells; also called gH + gL + UL128 + UL130 + UL131A; gH/gL/UL128-130 complex

[4] = molecular target: T2, hCMV gH, gL, UL128, UL130 and UL131A …; assay: cell cross-competition, 20x excess; competitor 5A2-biotin
[5] = molecular target: T2, hCMV gH, gL, UL128, UL130 and UL131A …; assay: cell cross-competition, 20x excess; competitor 6G4-biotin
[6] = molecular target: T2, hCMV gH, gL, UL128, UL130 and UL131A …; assay: cell cross-competition, 20x excess; competitor 10F7-biotin
[7] = molecular target: T2, hCMV gH, gL, UL128, UL130 and UL131A …; assay: cell cross-competition, 20x excess; competitor 15D8-biotin
[8] = molecular target: T2, hCMV gH, gL, UL128, UL130 and UL131A …; assay: cell cross-competition, 20x excess; competitor 1F11-biotin
[9] = molecular target: T2, hCMV gH, gL, UL128, UL130 and UL131A …; assay: cell cross-competition, 20x excess; competitor 4I22-biotin
[10] = molecular target: T2, hCMV gH, gL, UL128, UL130 and UL131A …; assay: cell cross-competition, 20x excess; competitor 4N10-biotin
[11] = molecular target: T2, hCMV gH, gL, UL128, UL130 and UL131A …; assay: cell cross-competition, 20x excess; competitor 2C12-biotin
[12] = molecular target: T2, hCMV gH, gL, UL128, UL130 and UL131A …; assay: cell cross-competition, 20x excess; competitor 8I21-biotin
[13] = molecular target: T2, hCMV gH, gL, UL128, UL130 and UL131A …; assay: cell cross-competition, 20x excess; competitor 8J16-biotin

T1 sequence (P16772 whole entry): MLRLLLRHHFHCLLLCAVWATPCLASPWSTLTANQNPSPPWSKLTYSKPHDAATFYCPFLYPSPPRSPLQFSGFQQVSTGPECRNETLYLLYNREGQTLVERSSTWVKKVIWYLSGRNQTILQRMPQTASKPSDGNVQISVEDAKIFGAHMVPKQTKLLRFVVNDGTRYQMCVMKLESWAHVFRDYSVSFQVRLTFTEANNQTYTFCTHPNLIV

Row | Binder | 50% Neutralization ARPE (hCMV VR1814) [1] | 50% Neutralization MRC-9 (hCMV VR1814) [1] | 90% Neutralization ARPE (hCMV VR1814) [2] | 90% Neutralization MRC-9 (hCMV VR1814) [2] | Inhibition of binding (%) [3] | Inhibition of binding (%) [4] | Inhibition of binding (%) [5] | Inhibition of binding (%) [6] | Inhibition of binding (%) [7] | Inhibition of binding (%) [8] | Inhibition of binding (%) [9] | Inhibition of binding (%) [10] | Inhibition of binding (%) [11] | Inhibition of binding (%) [12] | Inhibition of binding (%) [13]
1 | B1 | < 0.001 µg/mL | ≤ 2 µg/mL | 0.02 µg/mL | > 10 µg/mL | 0% | 100% | 0% | 0% | 0% | 0% | 0% | 100% | 0% | 90% | –
2 | B2 | < 0.01 µg/mL | > 2 µg/mL | 0.001 µg/mL | > 10 µg/mL | – | – | – | 100% | – | 100% | – | – | – | – | –
3 | B3 | < 0.001 µg/mL | > 2 µg/mL | 0.0025 µg/mL | > 10 µg/mL | 0% | – | 0% | – | 0% | 0% | 0% | – | 0% | 0% | –
4 | B4 | < 0.01 µg/mL | > 2 µg/mL | 0.0015 µg/mL | > 10 µg/mL | 100% | 0% | – | 100% | – | 100% | 100% | 0% | 0% | 0% | 0%
5 | B5 | – | – | – | – | 0% | 95% | 0% | – | 0% | 0% | 0% | 90% | 0% | 100% | –
6 | B6 | < 0.01 µg/mL | ≤ 2 µg/mL | 0.002 µg/mL | > 10 µg/mL | 100% | 0% | 0% | 100% | 0% | 100% | 100% | 0% | 0% | 0% | –
7 | B7 | – | – | – | – | 0% | 0% | 0% | 0% | 100% | 0% | 0% | 0% | 0% | 0% | –
8 | B8 | – | – | – | – | – | – | 0% | – | – | – | – | – | 0% | 0% | –

— US20100092481A1 (INSTITUTE FOR RESEARCH IN BIOMEDICINE, published 2010)
